From patent US20170306002A1 (UNITED STATES OF AMERICA AS REPESENTED BY THE SECRETARY …, published 2017)

Molecular target: NA of A/Bethesda/NIH107-D31/2009 (pH1N1, H275Y) (influenza A virus …)
Assay: cell-based or functional assay

B1: mAb CD6 (whole IgG) (antibody, V domains shown)
VH: QVKLQESGGGLVQPKGSLKLSCAASGFTFNTYAMNWVRQAPGKGLEWVARIRSKSNNYATFYADSVKDRFTISRDDSQSMLYLQMHNLKTDDTAMYYCVRPSIYYYASGYLDVWGAGTTVTVSS
VL: QIVLSQSPAILSASPGEKVTMTCRTSSSVSYMHWYQQKPGSSPKPWIYATSNLASGVPFRFSGSGSGTSYSLTISRVEAEDAATYYCQQWNSNPPTFGGGTKLEIKR
With B1 the “IC50, inhibition of NA activity in ELLA (fetuin substrate)” value was 0.029 µg/mL.
